The record followed here is patent US20140302075A1.

The assay concerns the target human TLR4 receptor (expressed on HEK-Blue TLR4 reporter cells) (human) (UniProt O00206). Description: cell-based or functional assay.
Chain of UniProt O00206 (O00206 24-839): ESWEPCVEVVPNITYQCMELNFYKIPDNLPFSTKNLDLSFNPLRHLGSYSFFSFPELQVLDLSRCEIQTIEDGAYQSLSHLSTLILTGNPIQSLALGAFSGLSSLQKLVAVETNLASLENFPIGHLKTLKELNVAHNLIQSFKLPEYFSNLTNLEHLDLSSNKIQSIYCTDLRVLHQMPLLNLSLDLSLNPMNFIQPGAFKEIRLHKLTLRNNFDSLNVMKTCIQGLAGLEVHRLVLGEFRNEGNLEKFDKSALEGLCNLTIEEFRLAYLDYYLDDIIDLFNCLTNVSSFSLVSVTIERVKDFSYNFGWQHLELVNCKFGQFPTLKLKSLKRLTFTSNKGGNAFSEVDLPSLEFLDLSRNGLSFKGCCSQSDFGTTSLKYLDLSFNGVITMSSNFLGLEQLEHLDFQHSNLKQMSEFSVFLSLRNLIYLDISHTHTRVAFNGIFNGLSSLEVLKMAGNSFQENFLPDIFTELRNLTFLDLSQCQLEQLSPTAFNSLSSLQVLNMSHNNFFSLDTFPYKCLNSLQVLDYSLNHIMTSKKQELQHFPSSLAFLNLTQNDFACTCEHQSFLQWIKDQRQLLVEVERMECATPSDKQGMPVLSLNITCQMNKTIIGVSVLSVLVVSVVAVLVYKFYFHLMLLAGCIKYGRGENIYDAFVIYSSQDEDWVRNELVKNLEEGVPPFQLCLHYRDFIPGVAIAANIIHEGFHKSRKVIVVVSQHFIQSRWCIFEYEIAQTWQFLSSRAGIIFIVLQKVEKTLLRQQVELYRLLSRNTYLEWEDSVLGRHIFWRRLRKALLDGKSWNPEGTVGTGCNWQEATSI

For “AspRS1^N1 (C76S) (amino acids 1-154 of human aspartyl-tRNA synthetase with Cys76 to Ser, C-terminal V5His tag) (ligand)”, the Fold increase in activity over AspRS1^N1 (TLR4 Activity; SEAP reporter, HEK-Blue TLR4 cells) is 3.6 fold.
